Measured values as given in the nanobody polyreactivity screen of Harvey et al. (2022).

Assay: yeast display, Sf9 membrane polyspecificity reagent, FACS + sequencing; frameworks hold sequencing errors
How it was run: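 Using colony PCR, genes from sorted yeast display clones were amplified, then sequenced on MiSeq at 2 × 250 and filtered by CDR length. The clones had been stained with 10% biotinylated, detergent-solubilized Sf9 membrane reagent for 1 hour at 4 °C and sorted by FACS into low and high (top ~1%) gates on anti-HA and streptavidin fluorescence. Polyreactivity labels come from the gate of origin.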

Sequence: QVQLVESGGGLVQAGGRLRLSCAASGRIFGKNVMGWYRQAPGKERELVAAISSGGSTYADSVKGRFTISRDNAKNTFYLQMNSLKPEDTAVYYCNTRPRLYGYRPSQYTYDYWGQGTQVTVSS
- polyreactivity (PSR sort gate): high polyreactivity

Sequence: QVQLVESGGGLVQAGGSLRLSCAASGRTFRYNAMGWYRQAPGKERELVAAIRYSGGRTYADSVKGRFTISRDNAKNTVYLQMNSLKPEDTAVYYCNADSIRRGYRYDYWGQGTQVTVSS
- polyreactivity (PSR sort gate): high polyreactivity

Sequence: QVQLVESGGGLVQAGGSLRLSSAASGSTFKYYAMGCYRQAPGKERELVAAITNDGSTSYADSVKGRFTISRDNAKNTVYLQMNSLTPEDTAVYYCNARSKYPSYFSSMGYWGQGTQVTVSS
- polyreactivity (PSR sort gate): high polyreactivity

Sequence: PVQLVESGGGLVQAGGSLRLTCAASGFTLTSNAMGWYRQAPGKERELVAAISKSGGSTHYADSVKGRFTISRDNAKNTVYLQMNSLKAEDTAVYYCATPYHRRFKGGDYWGQGTQVSVSS
- polyreactivity (PSR sort gate): high polyreactivity

Sequence: QVQLVESGGGLVQAGGSLRLSCAASGSNAMGCYRPAPGKDSELVAVITSRGGSTYYADSVKGRFTISRDNAKNTVYLQMNSLKPEDTAVYYCAKAWYVRGTWSVHVRYGYWGQGTQVTVSS
- polyreactivity (PSR sort gate): high polyreactivity

Sequence: QVQLVDSGGGLVQAGGRLRLSCAASGRTFVRYAMGWYRQAPGKERELVATIRWRGGSTYYADSVKGRFTISRDNAKNTVYLQMNSLKPDDTAVYYCAARRYSSGLTDDYWGQGTQVTVSS
- polyreactivity (PSR sort gate): high polyreactivity

Sequence: QVQLVESRGGLVQAGGSLRLSCAASGSIFGYYTMGWYRQAPGKDRELVAAISARGGRTYYADSVKGRFTISRDNAKNTVYLLMNSLKPEDTAVYYCAKRVYRRLYTGGQNPYDYWGQGTQVTVSS
- polyreactivity (PSR sort gate): high polyreactivity

Sequence: QVQLVESGGGLVQAGGSLRLSCAASGYIFERNALGWYRQAPGKERELVAAINWRTGRTYYADSVKGRFTISRDYAKYNVYLQMNSLKPEDTAVYYCAKEHSTYWAQPTYSYDNWGQGTQVTVSS
- polyreactivity (PSR sort gate): low polyreactivity

Sequence: QVQLVESGGGLVQAGGSLRLSCAASGSTFVYNDMGWYRQAPGKEGELVAGITTSGGSTYYADSVKGRFTISRDNAKNTVYLQINSLKPEDTAVYYCAARAFSAWLEMDYWGQGTQVTVSS
- polyreactivity (PSR sort gate): low polyreactivity

Sequence: QVQLVESGGGLVQAGGSLRLSCAASGRTFAYYAMGWYRQAPGKERELVAAIDLSDGTTFYADSVKGRFTISRDNAKNTVYLQMNSLKPEDTSVYYCAAELFNVSYGSDFDYWGQGTQVTVSS
- polyreactivity (PSR sort gate): low polyreactivity

Sequence: QVQLVESGGGLVQAGGSLRLSCASSGSTFGPNDMGWYRQAPGKERELVAAISRSGDDTYYADSVKGRFTISRDNAKNTVYLQMNSLKPEDTAVYYCNADGRPFFLRPLRWELDYWGQGTQVTVSS
- polyreactivity (PSR sort gate): low polyreactivity

Sequence: QVHLVESRGGLVQAGGSLRLSCAASGMGWNRHAPGKERELVATIPWSDGITYADSVKGRFTISRDNAKNTVYLQMNSLKQEVTAVYYCNADWDQTGTVFFSFGLREMDSWGQGTQVTVSS
- polyreactivity (PSR sort gate): low polyreactivity

Sequence: QVQLVESGGGLVQAGGSLRLSCAASGFTFSLYAMGWYRQAPGKERELVAAISRSGGSTYYADSVKGRFTISRDNAKNTVYLQMNSLNPEDTAVYYCAAREQTYTQRGKKLYYYWGQGTQVTVSS
- polyreactivity (PSR sort gate): high polyreactivity

Sequence: QVQLVESGGGLVQAGGSLRLSCAASGRTFYINAMGWYRQAPRKERELVAAITSVGSTNYADSVKGRFTISRDNAKNNVYIQMNSLKPEDTAVYYCAAESTEGTSGDYDYWGQGTQVTVSS
- polyreactivity (PSR sort gate): low polyreactivity

Sequence: QVQLVESGGGLVQAGGSLRLSCAASGSIFTWYAMGWYRQAPGKETELVARINVSAGITYYADSVKGRFTISRDNAKNTVYLQMNSLKPEDTAVYYCAAEDFTRQFEYWGQGTQVTVSS
- polyreactivity (PSR sort gate): low polyreactivity

Sequence: QVQLVESGGGLVQAGGRLRLSCAASGRTFYKNARGWYREAPGKERELVAAITNRGGSTYYADSVKGRFTISRDNAKNTVYLQMNSLKPEDTAVYYCNARRGSTGNVARWHYDYWGQGTQVTVSS
- polyreactivity (PSR sort gate): low polyreactivity

Sequence: QVQLVESGGGLVQAGGSLRLSCAASGFTFSDNAMVWYRQAPGKERELVAAISEGSGITYDADSVKGRFTISRDNAKNTVNLQMNSLKPEDNAVYYCAADWLSKYDYWGQGTQVTVSS
- polyreactivity (PSR sort gate): low polyreactivity

Sequence: QVQLVESGGGLVQAGGSLRLSCDASGSTFRANAMGWYRQAPGKECELVAAISQSGGITYYADSVKGRFTISRDNAKNTVYLQMNCLKPEDTAVYYCAAKGSYSYDVGGPVYQRTYGYWGQGTQVTVSS
- polyreactivity (PSR sort gate): high polyreactivity

Sequence: QVQLVESGGGLVQAGGSLRLSCAASGRTFYYAMGWYRQAPGKERELVATITSGGSTNYADSVKGRFTISRDNAKNTVYVQMNSLKPEDTAVYYCNRDIPPGNYYKALYYYWGQGTQVTVSS
- polyreactivity (PSR sort gate): low polyreactivity

Sequence: QVQLVESGGGLVQAGGSLRLSCAASGSIFTYYTMGWYRQAPGKERELVAAITVSGGRTFYADSVKGRFTISRDNAKNTVYLQMNSLKPEDTAVYYCAVKQVTLSPQYDYWGQGTQVTVSS
- polyreactivity (PSR sort gate): low polyreactivity

Sequence: QVQLVESGGGLVQAGGSLRLSCAASGFTFRAYAMGWYRQAPGKASELVATISGRGGSTYYADSVKGRFPISRDNAKNTVYLQMNSLKPEDTAVYYCARRFWSEYVTGVGGYNFWGQGTQVTVSS
- polyreactivity (PSR sort gate): high polyreactivity

Sequence: QVQLVESGGGLVQAGGSLRLICAASGSIFYYYAMVWYRQAPGKERELVAAISSGGSTNYADSVKGRFTISRDNAKNTVYLQMNSLKPEDTAVYYCAADYRAQYVVWYTYDYWGQGTQVTVSS
- polyreactivity (PSR sort gate): low polyreactivity

Sequence: QVQLVESGGGLVQAGGSLRLSCAASGRIFYGYTMGWYRQAPGKERELVAAITRSTGSTYYADSVKGRFTISRDNAKNTVYLQMNSLKPEDTAVYYCAKYGYTNTPKSPMDYWGQGTQVTVSS
- polyreactivity (PSR sort gate): low polyreactivity

Sequence: QVQLVESGGGLVQAGGSLRLSCAASGSIFPSYAMGWYRQAPGKERELVATISGSGTRTYYADSVKGRFTISRDNAKNTFYLQMNSLKPEDTAVYYCARLPPGDMDYWGQGTQVTVSS
- polyreactivity (PSR sort gate): low polyreactivity

Sequence: QVHLVESGGGLVQAGGSLRLSCAASGSTFRDYDMGWYRQAPGKERELVAAISLSGGLTHYADSVKGRFTISRDNGKNTVYLQMNSLKPEDTAVYYCAARNTGPVQYYYWGQGTQVTVSS
- polyreactivity (PSR sort gate): low polyreactivity

Sequence: QVQLVESGGGLVQAGGSLRLSCAASVFTFSRYAMGWYRQAPGKERELVAAITSRGGSTYYADSVKGRFTISRDNAKNTVYLQMNSLKPEDTAVYYCAASGRNRKDGLYEYYYWGQGTQVTVSS
- polyreactivity (PSR sort gate): high polyreactivity

Sequence: QVQLVESGGGLVQAGGSLRLSCAASGSIFWPYAMGWYRQAPGKERELVAGISSGGSTYYADSVKGRFTISRDNAKNTVYLQMNSLKPEDTAVYYCAARWQWLNGYYYWGQGTQVTVSS
- polyreactivity (PSR sort gate): high polyreactivity

Sequence: QDQHVESGGGLVQAGGSLRLSCAASGSNFDVYAMGWYRQAPGKERELVATISYGDSSTYYADSVKGRFTISRDNAKNTVYLQMNSLKPEDTAVYYCAADYLTAPRWRQWGVMDYWGQGTLVTVSS
- polyreactivity (PSR sort gate): low polyreactivity

Sequence: QVQLVETGGGLVQAGGSHRLSCAASGSTFDAYAMGWYRQAPGKETELVAGISIVGSTNYADSVKGRFTISRDNAKNTVYLKMNSLKPEDTAVLYCAADRDWQYSFRPSVYGYDYVYWGQGTQVTVSS
- polyreactivity (PSR sort gate): low polyreactivity

Sequence: QVQLVESGGGLVQAGGSLRLSCAASGSTFAWYAMGWYRQAPGKERELVATISSSGVSTFYADSVKGRFTISRDNAKNTVYLQMNSLKPEDTAVYYCNRYGNSYYFAPGPLYNYWGQGTQVTVSS
- polyreactivity (PSR sort gate): high polyreactivity

Sequence: QVQLVESGGGLVQAGGSLRLSCAASGSIFYFNAMGWYRQAPGKERELVASITSGGSTNYADSVKGRFTISRDNAKNTVYLQMNSLKPEDTAVYYCNKRVHYIAGRGYDYWGQGNQVTVSS
- polyreactivity (PSR sort gate): low polyreactivity
